Target: the molecule itself
Test: SEC; Superdex 200 10/300 GL, 0.5 mg in 500 μl loaded, 5 mM MOPS pH 7.5, 100 mM ammonium sulfate, 1 mM DTT; calibrated with standard proteins

B1: IALB_1185 protein from Ignavibacterium album (IaSGT), wild type, recombinant (enzyme)
chain: MKPHNSEKYFVKNGQPHFLISGEVHYFRINPKLWRNHLQLLKQTGADTVSTYIPWDWHEIEEDDFDFEGKTHPARNLIRFIKLCKEENLDLIVKPGPYILAEYENQGLPSWLLKKLSKNAFALDENGNVISPDLVSYLSDEFLEYTFKWYDKVMPIISKHQKEHYGPITMMQLCNEIGVFQWLSGKSDYNPKVINLYKEFIIQRYKTIEKLNSVYSTNYNSFDDLKAPSGKIKLRSDYCAYFDFHLFFREYYNKYISILKNKIRSFGINIKLTHNIPGWIYGNASELPMLISTYSEIMKNHPDIIFGLDHIPEFVSFRNAHSDLACNKILEAMQPEAPVWAAEFQAGTREHHVKAYAKDLETFYIASLAHGIKGFNYYMFSQGINPEGKGFYGKTFYFQTALDAASNKLALYDSIKKVNRFIRKEQKDLLRTNVNSEICVGFYKPYFFTELISSQLLKEKKLNVEELGLYIDPRFLREEILFNGLLRGLQTLNYNYDVVDLENCDLKSLTAYKQLWITSAEFMDAETQNLLSEFVLNGGNLILYPAVPTLDNYLNRCEILKNNFGIEFITKDSSHKVSAFGIEDVFTAFSKKQIYNDTNSKPIAFTQENEICGIRKKIGKGELTILGFAFGYTSDEHLELIDKLVKLNKIKRELFVSDKDIQFVVRENNKSRYIFFLNYHNERKTFNYRKSSELKKKKSEEISIAPFSYKVIKENK
notes: IALB_1185 protein (GH35), Ignavibacterium album DSM19864, gene ialb_1185 amplified from genomic DNA and inserted into the NdeI and XhoI sites of pET30a(+); domains in the structure: TIM barrel 6-432, Rossmann fold 438-648, Ig-like 653-716; theoretical molecular mass of the recombinant protein 84,709.883; Surmise: cloning into NdeI/XhoI of pET30a(+) would give a C-terminal His6 tag; A …
In the case of B1, the “stoichiometry N” value is reported as 2.

From article PMC8861115, “Characterization and structural analyses of a novel glycosyltransferase acting on the β-1,2-glucosidic linkages” (The Journal of Biological Chemistry, 2022)
